Earlier results in PMC4286324.

Molecular target: Nef (Human immunodeficiency virus 1) (UniProt P04324)

For Hck SH3 (from UniProt P08631), the Kd is given as 250 nM.
